Experimental data: PMC5833700, “MIF inhibits the formation and toxicity of misfolded SOD1 amyloid aggregates: implications for familial ALS” (Cell Death & Disease, 2018)

Columns and labels:
[1] = target: T1, poly-histidine tagged apo-SOD1^WT (human, UniProt P00441 1-154); experiment: SPR; ProteOn XPR36; poly-histidine tagged apo-SOD1^WT (1 µg, 736 RU) immobilised on tris-NTA HTG chip; MIF as analyte, 31-1000 nM, 25 µl/min; PBST (PBS 300 mM NaCl, 0.05% Tween-20); 25 °C; HTB1 channel subtracted; apparent affinity from steady-state values; settings: both partners purified
T1 construct: Cu/Zn superoxide dismutase (SOD1), human, wild type, codon-optimised, in the pHIS1 vector; Apo form; It was captured on the tris-NTA chip by its His tag; also called Cu/Zn superoxide dismutase; source: E. coli BL21, purified (HisTrap FF); not shown: His6, N-terminal, kept
T1 sequence (P00441 whole entry): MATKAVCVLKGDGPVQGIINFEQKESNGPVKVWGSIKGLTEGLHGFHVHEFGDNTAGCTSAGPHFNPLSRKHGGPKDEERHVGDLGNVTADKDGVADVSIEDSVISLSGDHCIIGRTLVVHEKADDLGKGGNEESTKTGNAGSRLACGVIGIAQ

[2] = target: the molecule itself; experiment: SDS-PAGE without prior crosslinking; 10 µM recombinant MIF, non-crosslinked control; sample buffer without β-mercaptoethanol; 13% SDS-PAGE and anti-MIF immunoblot

| Binder | Kd [1] [nM] | stoichiometry N [2] |
| --- | --- | --- |
| macrophage migration inhibitory factor, wild type (MIF^WT) (natural protein, human, UniProt P14174 1-115, looked up, No tag is mentioned; Surmise: the initiator methionine is removed in E. coli, since tautomerase activity was measured; also called recombinant MIF; hMIF; source: E. coli BL21 (DE3), purified (Capto Q anion exchange, Capto S cation exchange)) MPMFIVNTNVPRASVPDGFLSELTQQLAQATGKPPQYIAVHVVPDQLMAFGGSSEPCALCSLHSIGKIGGAQNRSYSKLLCGLLAERLRISPDRVYINYYDMNAANVGWNNSTFA | 1300 | – |
| locked-trimeric MIF mutant MIF^N110C (natural protein, disulfide bridge of the introduced cysteine (N110C) with Cys-81 of an adjacent subunit) PMFIVNTNVPRASVPDGFLSELTQQLAQATGKPPQYIAVHVVPDQLMAFGGSSEPCALCSLHSIGKIGGAQNRSYSKLLCGLLAERLRISPDRVYINYYDMNAANVGWNCSTFA | 548 | 3 |
